Assay results as given in PMC11026580 (2024).

Target: FcαRI (CD89) (Homo sapiens, UniProt P24071)
Experiment: SPR

Sequence of FcαRI (CD89) (P24071 22-287): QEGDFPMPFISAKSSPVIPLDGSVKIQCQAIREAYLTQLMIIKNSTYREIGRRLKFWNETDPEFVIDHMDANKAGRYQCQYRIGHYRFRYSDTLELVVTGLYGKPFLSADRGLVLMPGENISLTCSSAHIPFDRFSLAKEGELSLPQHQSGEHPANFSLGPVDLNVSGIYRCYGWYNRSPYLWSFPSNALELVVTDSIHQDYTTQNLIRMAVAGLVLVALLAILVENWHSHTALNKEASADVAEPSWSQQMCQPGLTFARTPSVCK

B1: IgA2 (glycoforms) (protein)
chain: ASPTSPKVFPLSLDSTPQDGNVVVACLVQGFFPQEPLSVTWSESGQNVTARNFPPSQDASGDLYTTSSQLTLPATQCPDGKSVTCHVKHYTNSSQDVTVPCRVPPPPPCCHPRLSLHRPALEDLLLGSEANLTCTLTGLRDASGATFTWTPSSGKSAVQGPPERDLCGCYSVSSVLPGCAQPWNHGETFTCTAAHPELKTPLTANITKSGNTFRPEVHLLPPPSEELALNELVTLTCLARGFSPKDVLVRWLQGSQELPREKYLTWASRQEPSQGTTTYAVTSILRVAAEDWKKGETFSCMVGHEALPLAFTQKTIDRMAGSCCVADWQMPPPYVVLDLPQETLEEETPGANLWPTTITFLTLFLLSLFYSTALTVTSVRGPSGKREGPQY
**Q.** How did the Kd turn out when B1 was run?
**A.** Its Kd is about 300 nM.
